Patent US20260167699A1 (Chugai, published 2026)
Substitutions are numbered along the chain they refer to.

T1: FcγRIIb extracellular domain, His-tagged (human, UniProt P31994 43-217)
T1 construct: extracellular domain; also called 2b
T1 sequence: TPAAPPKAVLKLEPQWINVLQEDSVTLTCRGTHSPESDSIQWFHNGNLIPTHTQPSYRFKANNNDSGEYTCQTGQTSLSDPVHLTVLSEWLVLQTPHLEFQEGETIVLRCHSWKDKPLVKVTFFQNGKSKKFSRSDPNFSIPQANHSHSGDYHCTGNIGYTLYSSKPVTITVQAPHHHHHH

T2: FcγRIIa(H) extracellular domain, His-tagged (human, UniProt P12318 34-217)
T2 construct: extracellular domain; also called 2aH
T2 sequence: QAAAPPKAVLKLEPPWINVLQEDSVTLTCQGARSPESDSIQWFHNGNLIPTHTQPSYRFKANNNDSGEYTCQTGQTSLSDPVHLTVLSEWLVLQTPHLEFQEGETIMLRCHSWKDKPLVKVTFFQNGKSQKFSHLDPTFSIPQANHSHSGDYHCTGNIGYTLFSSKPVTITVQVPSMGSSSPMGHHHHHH

T3: FcγRIIa(R) extracellular domain, His-tagged (human, UniProt P12318 34-217)
T3 construct: extracellular domain; also called 2aR
T3 sequence: T2 sequence with H134R

B1: GpH7-A5/GpH7-B3 variant Q295_05P/GpL16-k0 (antibody, human IgG1, kappa)
heavy 1: not shown
heavy 2: not shown
light: DIVMTQSPLSLPVTPGEPASISCQASESLVHSNRNTYLHWYLQKPGQSPQLLIYKVSNRFSGVPDRFSGSGSGTDFTLKISRVEAEDVGVYYCSQNTHVPPTFGQGTKVEIERTVAAPSVFIFPPSDEQLKSGTASVVCLLNNFYPREAKVQWKVDNALQSGNSQESVTEQDSKDSTYSLSSTLTLSKADYEKHKVYACEVTHQGLSSPVTKSFNRGEC
B2: GpH7-A5/GpH7-B3 variant Q295_06M/GpL16-k0 (antibody, human IgG1, kappa)
heavy 1: not shown
heavy 2: not shown
light: B1 light
B3: GpH7-A5/GpH7-B3 variant Q295_07I/GpL16-k0 (antibody, human IgG1, kappa)
heavy 1: not shown
heavy 2: not shown
light: B1 light
B4: GpH7-A5/GpH7-B3 variant Q295_08L/GpL16-k0 (antibody, human IgG1, kappa)
heavy 1: not shown
heavy 2: not shown
light: B1 light
B5: GpH7-A5/GpH7-B3 variant Q295_09D/GpL16-k0 (antibody, human IgG1, kappa)
heavy 1: not shown
heavy 2: not shown
light: B1 light
B6: GpH7-A5/GpH7-B3 variant Q295_10E/GpL16-k0 (antibody, human IgG1, kappa)
heavy 1: not shown
heavy 2: not shown
light: B1 light
B7: GpH7-A5/GpH7-B3 variant Q295_11K/GpL16-k0 (antibody, human IgG1, kappa)
heavy 1: not shown
heavy 2: not shown
light: B1 light
B8: GpH7-A5/GpH7-B3 variant Q295_12R/GpL16-k0 (antibody, human IgG1, kappa)
heavy 1: not shown
heavy 2: not shown
light: B1 light
B9: GpH7-A5/GpH7-B3 variant Q295_13S/GpL16-k0 (antibody, human IgG1, kappa)
heavy 1: not shown
heavy 2: not shown
light: B1 light
B10: GpH7-A5/GpH7-B3 variant Q295_14T/GpL16-k0 (antibody, human IgG1, kappa)
heavy 1: not shown
heavy 2: not shown
light: B1 light
B11: GpH7-A5/GpH7-B3 variant Q295_15Y/GpL16-k0 (antibody, human IgG1, kappa)
heavy 1: not shown
heavy 2: not shown
light: B1 light
B12: GpH7-A5/GpH7-B3 variant Q295_16H/GpL16-k0 (antibody, human IgG1, kappa)
heavy 1: not shown
heavy 2: not shown
light: B1 light
B13: GpH7-A5/GpH7-B3 variant Q295_18N/GpL16-k0 (antibody, human IgG1, kappa)
heavy 1: not shown
heavy 2: not shown
light: B1 light
B14: GpH7-A5/GpH7-B3 variant S239_01G/GpL16-k0 (antibody, human IgG1, kappa)
heavy 1: not shown
heavy 2: not shown
light: B1 light
B15: GpH7-A5/GpH7-B3 variant S239_02A/GpL16-k0 (antibody, human IgG1, kappa)
heavy 1: not shown
heavy 2: not shown
light: B1 light
B16: GpH7-A5/GpH7-B3 variant S239_03V/GpL16-k0 (antibody, human IgG1, kappa)
heavy 1: not shown
heavy 2: not shown
light: B1 light
B17: GpH7-A5/GpH7-B3 variant S239_06M/GpL16-k0 (antibody, human IgG1, kappa)
heavy 1: not shown
heavy 2: not shown
light: B1 light
B18: GpH7-A5/GpH7-B3 variant S239_07I/GpL16-k0 (antibody, human IgG1, kappa)
heavy 1: not shown
heavy 2: not shown
light: B1 light
B19: GpH7-A5/GpH7-B3 variant S239_08L/GpL16-k0 (antibody, human IgG1, kappa)
heavy 1: not shown
heavy 2: not shown
light: B1 light
B20: GpH7-A5/GpH7-B3 variant S239_09D/GpL16-k0 (antibody, human IgG1, kappa)
heavy 1: not shown
heavy 2: not shown
light: B1 light
B21: GpH7-A5/GpH7-B3 variant S239_10E/GpL16-k0 (antibody, human IgG1, kappa)
heavy 1: not shown
heavy 2: not shown
light: B1 light
B22: GpH7-A5/GpH7-B3 variant S239_14T/GpL16-k0 (antibody, human IgG1, kappa)
heavy 1: not shown
heavy 2: not shown
light: B1 light
B23: GpH7-A5/GpH7-B3 variant S239_18N/GpL16-k0 (antibody, human IgG1, kappa)
heavy 1: not shown
heavy 2: not shown
light: B1 light
B24: GpH7-A5/GpH7-B3 variant S239_19Q/GpL16-k0 (antibody, human IgG1, kappa)
heavy 1: not shown
heavy 2: not shown
light: B1 light
B25: GpH7-A5/GpH7-B3 variant S267_01G/GpL16-k0 (antibody, human IgG1, kappa)
heavy 1: not shown
heavy 2: not shown
light: B1 light
B26: GpH7-A5/GpH7-B3 variant S267_02A/GpL16-k0 (antibody, human IgG1, kappa)
heavy 1: not shown
heavy 2: not shown
light: B1 light
B27: GpH7-A5/GpH7-B3 variant S267_09D/GpL16-k0 (antibody, human IgG1, kappa)
heavy 1: not shown
heavy 2: not shown
light: B1 light
B28: GpH7-A5/GpH7-B3 variant S267_10E/GpL16-k0 (antibody, human IgG1, kappa)
heavy 1: not shown
heavy 2: not shown
light: B1 light
B29: GpH7-A5/GpH7-B3 variant S267_19Q/GpL16-k0 (antibody, human IgG1, kappa)
heavy 1: not shown
heavy 2: not shown
light: B1 light
B30: GpH7-A5/GpH7-B3 variant V266_02A/GpL16-k0 (antibody, human IgG1, kappa)
heavy 1: not shown
heavy 2: not shown
light: B1 light
B31: GpH7-A5/GpH7-B3 variant V266_06M/GpL16-k0 (antibody, human IgG1, kappa)
heavy 1: not shown
heavy 2: not shown
light: B1 light

These binders were tested against T1, FcγRIIb extracellular domain, His-tagged (assay: SPR, vs GpH7-A5/GpH7-B3/GpL16-k0 =100).

Binder | He/Con 2b
B1 | 75.7 % of control
B2 | 101 % of control
B3 | 94.5 % of control
B4 | 134 % of control
B5 | 68.1 % of control
B6 | 106 % of control
B7 | 79 % of control
B8 | 73.1 % of control
B9 | 63.8 % of control
B10 | 74.9 % of control
B11 | 73.3 % of control
B12 | 70.3 % of control
B13 | 72.8 % of control
B14 | 146 % of control
B15 | 91.6 % of control
B16 | 110 % of control

Binder | He/Con 2b
B17 | 102 % of control
B18 | 108 % of control
B19 | 142 % of control
B20 | 209 % of control
B21 | 183 % of control
B22 | 98.6 % of control
B23 | 121 % of control
B24 | 87.3 % of control
B25 | 110 % of control
B26 | 256 % of control
B27 | 326 % of control
B28 | 398 % of control
B29 | 228 % of control
B30 | 85.1 % of control
B31 | 264 % of control

What follows are binders tested against T2, FcγRIIa(H) extracellular domain, … (assay: SPR, vs GpH7-A5/GpH7-B3/GpL16-k0 =100).

Binder | He/Con 2aH
B1 | 118 % of control
B2 | 111 % of control
B3 | 117 % of control
B4 | 128 % of control
B5 | 62.6 % of control
B6 | 112 % of control
B7 | 102 % of control
B8 | 96.4 % of control
B9 | 79.5 % of control
B10 | 86.2 % of control
B11 | 89.3 % of control
B12 | 90.1 % of control
B13 | 87.8 % of control
B14 | 93.8 % of control
B15 | 89.9 % of control
B16 | 88 % of control

Binder | He/Con 2aH
B17 | 95.4 % of control
B18 | 88.5 % of control
B19 | 101 % of control
B20 | 111 % of control
B21 | 108 % of control
B22 | 95.9 % of control
B23 | 91.1 % of control
B24 | 80 % of control
B25 | 72.1 % of control
B26 | 121 % of control
B27 | 107 % of control
B28 | 103 % of control
B29 | 61.9 % of control
B30 | 69.7 % of control
B31 | 84.8 % of control

Each binder was assayed against T4, FcγRIa extracellular domain, His-tagged (human, UniProt P12314 16-292) (assay: SPR, vs GpH7-A5/GpH7-B3/GpL16-k0 =100).
T4 construct: extracellular domain; also called 1a
T4 sequence (P12314 other isoform, or with tags, fused parts or gaps): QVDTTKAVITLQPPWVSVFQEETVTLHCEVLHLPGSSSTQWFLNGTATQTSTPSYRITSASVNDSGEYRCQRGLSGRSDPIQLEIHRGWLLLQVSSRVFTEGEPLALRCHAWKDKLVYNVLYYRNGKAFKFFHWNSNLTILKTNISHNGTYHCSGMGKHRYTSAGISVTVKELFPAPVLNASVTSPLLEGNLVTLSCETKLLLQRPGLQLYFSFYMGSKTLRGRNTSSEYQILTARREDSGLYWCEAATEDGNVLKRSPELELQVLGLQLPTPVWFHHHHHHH

Binder | He/Con 1a
B1 | 102 % of control
B2 | 102 % of control
B3 | 101 % of control
B4 | 103 % of control
B5 | 98.5 % of control
B6 | 101 % of control
B7 | 99.7 % of control
B8 | 98.8 % of control
B9 | 100 % of control
B10 | 101 % of control
B11 | 100 % of control
B12 | 101 % of control
B13 | 101 % of control
B14 | 104 % of control
B15 | 103 % of control
B16 | 98.9 % of control

Binder | He/Con 1a
B17 | 102 % of control
B18 | 101 % of control
B19 | 103 % of control
B20 | 104 % of control
B21 | 108 % of control
B22 | 104 % of control
B23 | 104 % of control
B24 | 104 % of control
B25 | 99.9 % of control
B26 | 105 % of control
B27 | 106 % of control
B28 | 102 % of control
B29 | 99.2 % of control
B30 | 93.8 % of control
B31 | 96.5 % of control

Each binder was assayed against T5, FcγRIIIa extracellular domain, His-tagged (human, UniProt P08637 17-208) (assay: SPR, vs GpH7-A5/GpH7-B3/GpL16-k0 =100).
T5 construct: extracellular domain; also called 3a
T5 sequence (P08637 other isoform, or with tags, fused parts or gaps): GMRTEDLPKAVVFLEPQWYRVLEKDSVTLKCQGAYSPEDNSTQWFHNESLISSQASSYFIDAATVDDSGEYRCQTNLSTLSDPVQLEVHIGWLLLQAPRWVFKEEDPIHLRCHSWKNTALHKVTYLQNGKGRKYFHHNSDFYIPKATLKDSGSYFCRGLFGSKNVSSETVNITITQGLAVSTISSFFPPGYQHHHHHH

Binder | He/Con 3a
B1 | 74.4 % of control
B2 | 100 % of control
B3 | 101 % of control
B4 | 120 % of control
B5 | 85.6 % of control
B6 | 105 % of control
B7 | 81.8 % of control
B8 | 73.2 % of control
B9 | 90.4 % of control
B10 | 120 % of control
B11 | 81.5 % of control
B12 | 80.2 % of control
B13 | 85.7 % of control
B14 | 72 % of control
B15 | 70.9 % of control
B16 | 72.4 % of control

Binder | He/Con 3a
B17 | 73.9 % of control
B18 | 75 % of control
B19 | 90 % of control
B20 | 156 % of control
B21 | 171 % of control
B22 | 93 % of control
B23 | 104 % of control
B24 | 53.8 % of control
B25 | 53.3 % of control
B26 | 149 % of control
B27 | 179 % of control
B28 | 90.9 % of control
B29 | 64.3 % of control
B30 | 56.8 % of control
B31 | 84.9 % of control

Each binder was assayed against T3, FcγRIIa(R) extracellular domain, … (assay: SPR, vs GpH7-A5/GpH7-B3/GpL16-k0 =100).

Binder | He/Con 2aR
B1 | 86.6 % of control
B2 | 101 % of control
B3 | 97.3 % of control
B4 | 118 % of control
B5 | 68.7 % of control
B6 | 101 % of control
B7 | 88.1 % of control
B8 | 82.2 % of control
B9 | 73 % of control
B10 | 79.2 % of control
B11 | 82 % of control
B12 | 80.5 % of control
B13 | 81.7 % of control
B14 | 120 % of control
B15 | 89.8 % of control
B16 | 94.1 % of control

Binder | He/Con 2aR
B17 | 94.7 % of control
B18 | 95.9 % of control
B19 | 114 % of control
B20 | 129 % of control
B21 | 127 % of control
B22 | 97.4 % of control
B23 | 104 % of control
B24 | 79.8 % of control
B25 | 121 % of control
B26 | 167 % of control
B27 | 186 % of control
B28 | 188 % of control
B29 | 145 % of control
B30 | 88.8 % of control
B31 | 161 % of control
